The values that follow come from patent US20180273595A1 (REGENTS OF THE UNIVERSITY OF MICHIGAN, published 2018).

Where no end group is shown, it is not given here. The star is where a group is joined. Biotin = O=C1N[C@H]2[C@H](CS[C@H]2CCCCC(=O)*)N1

Experiment [1] has as its target T1, ERG_Y373A (purified recombinant ERG with Y373A) (UniProt P11308 1-479, limits assumed, biotinylated for OctetRED).
T1 construct: also called Y373A mutation
T1 sequence (looked up): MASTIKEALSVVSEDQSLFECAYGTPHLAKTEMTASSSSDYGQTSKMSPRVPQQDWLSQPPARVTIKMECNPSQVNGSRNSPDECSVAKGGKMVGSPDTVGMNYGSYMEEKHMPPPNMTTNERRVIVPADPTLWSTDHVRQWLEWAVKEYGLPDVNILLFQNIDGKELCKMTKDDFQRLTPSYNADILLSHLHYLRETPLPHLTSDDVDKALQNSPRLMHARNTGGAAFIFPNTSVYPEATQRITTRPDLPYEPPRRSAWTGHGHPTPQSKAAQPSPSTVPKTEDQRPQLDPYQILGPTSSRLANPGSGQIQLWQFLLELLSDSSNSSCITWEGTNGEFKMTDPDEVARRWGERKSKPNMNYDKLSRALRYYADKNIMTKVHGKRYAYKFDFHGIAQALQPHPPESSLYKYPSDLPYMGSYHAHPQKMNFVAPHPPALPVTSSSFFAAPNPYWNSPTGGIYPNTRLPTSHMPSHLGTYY
The experiment in a line: pull-down of purified recombinant proteins with biotin peptide.

In experiment [2] the target is T2, Halo-tagged full-length Spi1 (UniProt P17947 1-270).
T2 construct: mature; not shown: Halo-tag at the N-terminus
The experiment in a line: pull-down of Halo-tagged proteins with biotin peptide.

In experiment [3] the target is T3, Halo-tagged ERG mutant Y373A (UniProt P11308 1-479).
T3 construct: mature; also called ERG (Y373A); negative control ERG (Y373A); not shown: Halo-tag at the N-terminus
T3 sequence (looked up): T1 sequence (looked up)
The description is as above.

B1: biotinylated EIP1 peptide (Biotin-LPPYLFT) (peptide)
peptide: Biotin-LPPYLFT
notes: also called Biotin-EIP1; biotin-conjugated EIP1
For the molecule B1, the binding result in experiment [1] is “no binding”.
As for Biotin-LSFGSLP (also called biotin-EIP2) [biotinylated EIP2 peptide (Biotin-LSFGSLP)], the binding result in experiment [2] and in experiment [3] was “no binding” in each case.
